Values belong to the binder of their own block, whether it stands above or below them.
Assays:
Settings in all cases: both partners purified
[1] = molecular target: T1, BAK-CDP02 (BAK-targeting computationally designed protein 02 of 11); assay: BLI; Octet RED96; biotinylated BCL-2 family proteins (25 nM) immobilised on streptavidin biosensors, designed protein in solution; 10 mM Hepes pH 7.4, 150 mM NaCl, 3 mM EDTA, 0.05% surfactant P20, 0.5% nonfat dry milk; titrations in triplicate, 1:1 binding model
T1 construct: Cloned into pET29b; source: E. coli, purified (Ni-NTA, SEC)

αBAK1 = molecular target: T2, αBAK1; assay: as above
T2 construct: source: E. coli, purified

MBP-BIM-BH3 = assay: as above
αBAK2 = molecular target: T3, αBAK2; assay: as above
T3 construct: Form used for BLI and, as far as told, for the liposome and cytochrome c assays; source: E. coli, purified

αBAX1 = assay: as above
BCL-XL, biotinylated = BCL-XL, biotinylated (UniProt Q07817-1 1-233, biotin); assay: BLI; Octet RED96; biotinylated BCL-2 proteins (25 nM) immobilised on streptavidin biosensors; 10 mM Hepes pH 7.4, 150 mM NaCl, 3 mM EDTA, 0.05% surfactant P20, 0.5% nonfat dry milk; multiple-concentration titrations, 1:1 binding model
BCL-XL, biotinylated, sequence (Q07817 whole entry): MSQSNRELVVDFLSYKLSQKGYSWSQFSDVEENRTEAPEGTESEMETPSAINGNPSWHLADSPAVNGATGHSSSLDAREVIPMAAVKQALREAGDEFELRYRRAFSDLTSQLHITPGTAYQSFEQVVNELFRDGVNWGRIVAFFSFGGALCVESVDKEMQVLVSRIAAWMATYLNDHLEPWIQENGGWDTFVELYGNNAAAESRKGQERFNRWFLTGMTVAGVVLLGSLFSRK

BCL-2, biotinylated = BCL-2, biotinylated (UniProt P10415 1-239, biotin); assay: as above
BCL-2, biotinylated, sequence (P10415 whole entry): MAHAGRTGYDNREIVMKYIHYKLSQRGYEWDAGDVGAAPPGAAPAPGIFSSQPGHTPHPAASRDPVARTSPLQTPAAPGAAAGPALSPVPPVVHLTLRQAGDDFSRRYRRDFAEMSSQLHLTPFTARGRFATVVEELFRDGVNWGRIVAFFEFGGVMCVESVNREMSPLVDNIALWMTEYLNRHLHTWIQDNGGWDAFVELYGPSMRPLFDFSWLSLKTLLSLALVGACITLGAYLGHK

Kd [1]: 60 nM | Kd (αBAK1): 7 nM | Kd (MBP-BIM-BH3): 4000 ± 2000 nM | Kd (αBAK2): 0.4 nM
B1: MBP-BAK 16-186, biotinylated (Avi tag, 6-histidine tag) (domain or fragment)
chain: EPALPSASEEQVAQDTEEVFRSYVFYRHQQEQEAEGVAAPADPEMVTLPLQPSSTMGQVGRQLAIIGDDINRRYDSEFQTMLQHLQPTAENAYEYFTKIATSLFESGINWGRVVALLGFGYRLALHVYQHGLTGFLGQVTRFVVDFMLHHCIARWIAQRGGWVAALNLGNGLEGLNDIFEAQKIEWHEGSHHHHHH
modifications: biotin on the Avi tag (enzymatic, BirA)

Kd (αBAX1): 5 nM
B2: BFL-1 (natural protein)
chain: MTDCEFGYIYRLAQDYLQCVLQIPQPGSGPSKTSRVLQNVAFSVQKEVEKNLKSCLDNVNVVSVDTARTLFNQVMEKEFEDGIINWGRIVTIFAFEGILIKKLLRQQIAPDVDTYKEISYFVAEFIMNNTGEWIRQNGGWENGFVKKFEPKSG
modifications: biotin

Kd (BCL-XL, biotinylated): 2.3 ± 0.4 nM | Kd (BCL-2, biotinylated): 47 ± 5 nM
B3: MBP-BidBH3 (domain or fragment, UniProt P55957 1-195, looked up)
chain: MDCEVNNGSSLRDECITNLLVFGFLQSCSDNSFRRELDALGHELPVLAPQWEGYDELQTDGNRSSHSRLGRIEADSESQEDIIRNIARHLAQVGDSMDRSIPPGLVNGLALQLRNTSRSEEDRNRDLATALEQLLQAYPRDMEKEKTMLVLALLLAKKVASHTPSLLRDVFHTTVNFINQNLRTYVRSLARNGMD
notes: BH3 peptide of the BH3-only protein BID, fused to MBP

Source: article PMC12412652 (Science Advances, 2025)
